Data on two substances can be found in article PMC5362816.

One assay deals with CaM-agarose (Sigma) (UniProt P62157). Briefly: pull-down; CaM-agarose (Sigma) incubated with HEK293 lysate expressing a V5-His-tagged TRP channel; 20 mM Tris-HCl pH 7.4, 150 mM NaCl, 1% NP-40, 4 °C; 1 mM Ca2+ (Fig. 2A) or 2 mM Ca2+ (Fig. 2B); blot with anti-V5.
For assay [1], the target named is HA-tagged CaM12 mutant (rat) (UniProt P0DP29). Briefly: co-IP; HA-CaM or mutants co-expressed with TRPA1-V5 in HEK293; IP with anti-HA.11 and Protein A/G PLUS-Agarose in 2 mM Ca2+; blot with anti-V5; band intensity by ImageJ, normalized by total TRPA1.
Assay [2] has as its target HA-tagged CaM3 mutant (rat) (UniProt P0DP29). The assay is described as above.
Assay [3] deals with HA-tagged CaM4 mutant (rat) (UniProt P0DP29). Described as above.

Sequence of TRPA1-V5-His (×6) (Q8BLA8 whole entry): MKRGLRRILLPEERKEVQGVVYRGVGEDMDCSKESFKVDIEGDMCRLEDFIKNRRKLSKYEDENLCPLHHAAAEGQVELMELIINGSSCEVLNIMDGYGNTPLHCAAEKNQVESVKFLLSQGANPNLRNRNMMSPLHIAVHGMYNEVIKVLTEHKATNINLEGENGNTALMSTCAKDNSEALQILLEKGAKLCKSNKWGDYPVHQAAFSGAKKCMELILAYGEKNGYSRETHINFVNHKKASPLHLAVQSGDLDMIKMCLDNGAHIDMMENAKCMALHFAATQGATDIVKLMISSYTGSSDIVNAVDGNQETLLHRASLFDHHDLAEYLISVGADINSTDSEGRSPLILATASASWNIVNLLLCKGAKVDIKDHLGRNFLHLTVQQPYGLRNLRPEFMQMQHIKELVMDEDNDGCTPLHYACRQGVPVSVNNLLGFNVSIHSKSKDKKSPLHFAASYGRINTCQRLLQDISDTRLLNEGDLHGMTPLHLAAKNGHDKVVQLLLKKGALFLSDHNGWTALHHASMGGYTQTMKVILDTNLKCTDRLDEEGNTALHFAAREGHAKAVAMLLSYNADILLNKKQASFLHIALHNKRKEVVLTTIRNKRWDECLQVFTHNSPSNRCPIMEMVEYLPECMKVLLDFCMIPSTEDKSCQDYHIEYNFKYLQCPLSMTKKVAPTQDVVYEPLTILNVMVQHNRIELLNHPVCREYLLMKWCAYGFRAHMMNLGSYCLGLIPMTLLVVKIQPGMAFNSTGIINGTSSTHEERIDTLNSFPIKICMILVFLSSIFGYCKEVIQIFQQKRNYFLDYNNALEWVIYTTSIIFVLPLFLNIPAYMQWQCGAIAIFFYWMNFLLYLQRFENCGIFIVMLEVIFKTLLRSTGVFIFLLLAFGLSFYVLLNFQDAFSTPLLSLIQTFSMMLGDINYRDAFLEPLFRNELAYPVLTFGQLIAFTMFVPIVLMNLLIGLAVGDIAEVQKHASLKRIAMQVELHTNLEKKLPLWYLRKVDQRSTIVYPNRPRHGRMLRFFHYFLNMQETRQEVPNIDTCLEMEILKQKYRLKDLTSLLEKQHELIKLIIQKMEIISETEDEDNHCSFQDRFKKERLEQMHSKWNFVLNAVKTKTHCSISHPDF

In the assay with CaM-agarose (Sigma), TRPV3 (V5-His tagged) (natural protein) showed a relative binding to CaM (normalized by total input) of 0.2.
As for “TRPA1-V5-His (×6) (from UniProt Q8BLA8 1-1125) (natural protein)”, the values for the percent reduction in TRPA1-CaM binding against wild-type CaM in assay [1], in assay [2] and in assay [3] were 40%, 60% and 87%, respectively.
